Numbering of substitutions follows the chain as printed.
Tests used:
Assay in all cases: cleavage_in_vitro
[1] = system: T1, BspQI (Bacillus sphaericus); details: NEB4, 50 C, Mg2+; FI NEB1-3: 2, 16, 32
T1 sequence: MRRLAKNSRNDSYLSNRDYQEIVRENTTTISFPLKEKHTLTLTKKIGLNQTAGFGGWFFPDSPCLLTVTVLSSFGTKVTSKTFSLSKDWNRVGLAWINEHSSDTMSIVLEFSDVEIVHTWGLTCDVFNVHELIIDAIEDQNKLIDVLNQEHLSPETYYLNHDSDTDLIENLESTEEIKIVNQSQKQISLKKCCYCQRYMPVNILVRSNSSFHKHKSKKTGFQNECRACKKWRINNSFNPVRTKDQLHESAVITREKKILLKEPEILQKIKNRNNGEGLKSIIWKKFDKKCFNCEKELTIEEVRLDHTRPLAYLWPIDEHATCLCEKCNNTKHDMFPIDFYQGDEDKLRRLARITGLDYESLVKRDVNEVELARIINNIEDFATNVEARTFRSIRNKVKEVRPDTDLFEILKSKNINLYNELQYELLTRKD

[2] = system: T2, SbfI-HF K251A (Streptomyces species Bf-61); details: NEB4, 37 C, Mg2+; FI NEB1-3: 1000, 120, 8
T2 sequence: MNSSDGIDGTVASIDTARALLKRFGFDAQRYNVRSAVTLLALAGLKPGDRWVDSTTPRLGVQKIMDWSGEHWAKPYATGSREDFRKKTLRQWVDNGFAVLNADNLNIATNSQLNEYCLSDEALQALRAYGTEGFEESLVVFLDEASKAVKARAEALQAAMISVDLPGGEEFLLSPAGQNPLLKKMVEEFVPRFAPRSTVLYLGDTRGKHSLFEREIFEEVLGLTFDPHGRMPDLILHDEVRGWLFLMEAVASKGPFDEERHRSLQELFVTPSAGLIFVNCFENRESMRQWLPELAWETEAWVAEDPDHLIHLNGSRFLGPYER

[3] = molecular target: T3, BamHI-HF E163A/E167T (Bacillus amyloliquefaciens) (UniProt P23940); details: NEB4, 37 C, Mg2+; FI NEB1-3: >=4000, >=4000, >=250
T3 sequence: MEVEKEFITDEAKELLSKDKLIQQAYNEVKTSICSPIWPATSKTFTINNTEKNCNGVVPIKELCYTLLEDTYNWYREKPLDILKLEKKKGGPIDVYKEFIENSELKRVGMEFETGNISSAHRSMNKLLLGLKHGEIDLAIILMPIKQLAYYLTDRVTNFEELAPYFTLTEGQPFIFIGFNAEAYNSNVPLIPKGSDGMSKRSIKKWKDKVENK

[4] = system: T4, SapI (Saccharopolyspora sp.); details: NEB4, 37 C, Mg2+; FI NEB1-3: 16, 64, 32
T4 sequence: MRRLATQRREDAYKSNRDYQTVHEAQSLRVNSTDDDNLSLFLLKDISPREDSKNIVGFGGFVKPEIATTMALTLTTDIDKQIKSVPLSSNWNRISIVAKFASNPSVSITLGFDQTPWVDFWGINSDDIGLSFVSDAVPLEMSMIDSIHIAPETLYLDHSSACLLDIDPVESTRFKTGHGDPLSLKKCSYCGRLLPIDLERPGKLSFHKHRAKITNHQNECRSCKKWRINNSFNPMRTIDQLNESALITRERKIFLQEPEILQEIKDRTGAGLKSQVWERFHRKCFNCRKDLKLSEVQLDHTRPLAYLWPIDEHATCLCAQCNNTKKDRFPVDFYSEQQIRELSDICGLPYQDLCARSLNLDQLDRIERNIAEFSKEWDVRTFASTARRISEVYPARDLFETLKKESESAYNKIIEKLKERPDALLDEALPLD

[5] = molecular target: T5, HindIII (Haemophilus influenzae Rd) (UniProt P43870); details: NEB4, 37 C, Mg2+; FI NEB1-3: 32, 250, 4000
T5 sequence: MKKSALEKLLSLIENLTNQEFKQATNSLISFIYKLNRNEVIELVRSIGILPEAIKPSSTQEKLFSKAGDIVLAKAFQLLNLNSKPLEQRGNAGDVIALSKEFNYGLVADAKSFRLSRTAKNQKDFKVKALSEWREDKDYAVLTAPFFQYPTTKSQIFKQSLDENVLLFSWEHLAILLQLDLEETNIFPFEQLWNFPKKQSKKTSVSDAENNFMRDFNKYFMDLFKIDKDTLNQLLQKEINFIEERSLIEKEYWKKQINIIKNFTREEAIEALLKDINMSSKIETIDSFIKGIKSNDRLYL

[6] = system: T6, SbfI (Streptomyces species Bf-61); details: NEB4, 37 C, Mg2+; FI NEB1-3: 32, 8, 8
T6 sequence: T2 sequence with A251K

[7] = system: T7, SspI (Sphaerotilus species); details: NEB4, 37 C, Mg2+; FI NEB1-3: 64, 16, 32
T7 sequence: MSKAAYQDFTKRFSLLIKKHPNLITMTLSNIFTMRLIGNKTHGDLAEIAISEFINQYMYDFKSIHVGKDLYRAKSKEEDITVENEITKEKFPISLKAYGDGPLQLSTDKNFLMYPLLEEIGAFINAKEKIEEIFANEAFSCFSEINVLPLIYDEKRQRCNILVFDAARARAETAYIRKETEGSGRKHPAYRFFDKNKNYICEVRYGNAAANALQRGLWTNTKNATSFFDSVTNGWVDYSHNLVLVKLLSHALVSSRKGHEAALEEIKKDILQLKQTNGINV

[8] = system: T8, SphI-HF K100A (Streptomyces phaeochromogenes); details: NEB4, 37 C, Mg2+; FI NEB1-3: 4000, 2000, 250
T8 sequence: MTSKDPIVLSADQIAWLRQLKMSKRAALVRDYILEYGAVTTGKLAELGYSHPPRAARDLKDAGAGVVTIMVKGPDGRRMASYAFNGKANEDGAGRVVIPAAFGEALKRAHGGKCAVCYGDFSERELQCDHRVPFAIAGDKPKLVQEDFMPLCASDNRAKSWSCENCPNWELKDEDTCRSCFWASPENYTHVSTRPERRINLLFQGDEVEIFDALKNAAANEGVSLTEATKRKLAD

Substance: lambda phage DNA
- activity (fidelity index) [1]: 4
- activity (fidelity index) [2]: 250
- activity (fidelity index) [3]: > 4000
- activity (fidelity index) [4]: 16
- activity (fidelity index) [5]: 32
- activity (fidelity index) [6]: 8
- activity (fidelity index) [7]: 16
- activity (fidelity index) [8]: 8000

From patent US20130115678
